According to patent publication US10005838B2, “Milk fat globule epidermal growth factor 8 regulates fatty acid uptake” (REGENTS OF THE UNIVERSITY OF CALIFORNIA, priority 2013, dated 2018):

What was measured:
primary hepatocytes = test: Fatty acid uptake in primary hepatocytes; type: cell-based, mouse
Procedure: Uptake of fatty acids by differentiated 3T3-L1 adipocytes or primary mouse adipocytes was assessed using a QBT Fatty Acid Uptake Kit (Molecular Devices). Cells were plated in triplicate in 96-well plates at a concentration of 25,000 cells per well in 100 μl of DMEM/10% FCS. Plates were centrifuged at 1000 rpm for 4 minutes and incubated at 37° Celsius for 4-5 hours. Cells were then serum deprived for 1 hour before treatment with recombinant proteins for 30 minutes followed by the addition of QBT Fatty Acid Uptake solution. […] Plates were incubated in a fluorescent plate reader at 37° Celsius and kinetic readings were acquired every 20 seconds for 30 minutes. Fluorescence values were plotted against time and data was expressed as relative fluorescent units per minutes×10^3.
The liver was pre-perfused through the portal vein with calcium-free buffer (0.5 mM EDTA, HBSS without Ca^2+ and Mg^2+) and next perfused with collagenase (3.5 U/ml Collegenase II (Worthington) 25 mM HEPES, HBSS with Ca^2+ and Mg^2+). […] Viability of isolated hepatocytes was determined by Trypan blue staining (around 85%) and cell density was approximately 60% confluence. […]

primary mouse adipocytes = test: Fluorescent fatty acid uptake assay in primary mouse adipocytes; type: cell-based
Procedure: Uptake of fatty acids by differentiated 3T3-L1 adipocytes or primary mouse adipocytes was assessed using a QBT Fatty Acid Uptake Kit (Molecular Devices). Cells were plated in triplicate in 96-well plates at a concentration of 25,000 cells per well in 100 μl of DMEM/10% FCS. Plates were centrifuged at 1000 rpm for 4 minutes and incubated at 37° Celsius for 4-5 hours. Cells were then serum deprived for 1 hour before treatment with recombinant proteins for 30 minutes followed by the addition of QBT Fatty Acid Uptake solution. In experiments using function-blocking antibodies, antibodies against mouse integrins αv (clone RMV-7) (Takahashi, K. et al., J Immunol 145, 4371-4379 (1990)) β3 (clone 2C9.G2; BD Biosciences) (Ashkar, S. et al., Science 287, 860-864 (2000)), β5 (clone ALULA) (Su, G. et al., American journal of respiratory cell and molecular biology 36, 377-386 (2007)), 131 (clone HA2/5; BD Biosciences, anti-rat with cross-reactivity with mouse (Zovein, A. C. et al., Developmental cell 18, 39-51 (2010)), CD36 (clone MF3; Abcam) (Helming, L. et al., Journal of cell science 122, 453-459 (2009)), human integrins αv (clone L230) (Thomas, G. J. et al., British journal of cancer 87, 859-867 (2002)), β3 (clone Axum-2) (Su, G. et al., Am J Respir Crit Care Med 185, 58-66 (2012)), β5 (clone ALULA), β1 (clone P5D2), cycloRGD and cycloRAD (BACHEM) were added to cells after serum deprivation and cells were incubated for 20 minutes at 4° Celsius prior to addition of recombinant proteins. Plates were incubated in a fluorescent plate reader at 37° Celsius and kinetic readings were acquired every 20 seconds for 30 minutes. Fluorescence values were plotted against time and data was expressed as relative fluorescent units per minutes×10^3.
Primary mouse adipocytes were obtained from epididymal fat pads by collagenase digestion in Krebs-HEPES (KRBH) buffer followed by filtering through a 100 μm strainer which was then washed with an additional 7.5 mL KRBH buffer. Adipocytes were allowed to float to the top of the mixture for 5 minutes, and the solution under the adipocyte layer was removed with a syringe. The adipocytes were washed with 10 mL KRBH and again allowed to float to the surface, at which point the solution was again removed. This process was repeated for a total of 3 washes. After the last aspiration, adipocytes were resuspended in 0.5-1.0 mL and counted.
Primary mouse adipocyte progenitors from the vascular stromal fraction were isolated and cultured as reported previously (Tseng et al., 2008). In brief, subcutaneous white adipose tissue was removed, minced and digested with 1 mg/ml collagenase for 45 min at 37° C. in DMEM/F12 medium containing 1% BSA and antibiotics. Digested tissues were filtered through sterile 150 μm nylon mesh and centrifuged at 250 g for 5 min. […]

CD36 = test: Plasma membrane CD36 expression in primary cells; type: cell-based, mouse; settings: primary Mfge8−/− adipocytes, hepatocytes, and enterocytes; to WT levels
Procedure: Following tissue preparation and SDS-PAGE, membranes were incubated with a polyclonal antibody against Akt (Cell Signaling Technology), or Rictor (Cell Signaling); Anti-PGC1 alpha antibody (abcam); a monoclonal antibody against Phospho-Akt Ser473 (Cell Signaling), Phospho-Rictor Thr1135 (Cell Signaling), GAPDH (Cell Signaling), or Mfge8 (R&D Systems). For evaluation of total AKT and total Rictor, membranes that been blotted for phospho-AKT and phospho-Rictor were stripped and reprobed. Plasma membrane and post-plasma membrane fractions were isolated as previously described (Nishiumi, S. & Ashida, H., Biosci Biotechnol Biochem 71, 2343-2346 (2007)).

AKT = test: Western blot of antral tissue, AKT phosphorylation; parameters: species or system mouse; settings: antral tissue treated for 30 minutes
Procedure: In FIG. 14A, the antral rings were treated for 15 min with PI3K inhibitor wortmannin (Wort.100 nm) followed by assessment of contractile force in response to MCh. N=3-4. ***P<0.0001. […] Western blot of antral tissue were treated for 30 minutes with or without rMfge8. […] Western blot of antrum were treated for 30 minutes with wortmannin (100 ng/ml) or Mfge8 and then with MCh for 15 minutes prior to quantifying active RhoA using a GST pull-down. […] PTEN activity assay measured the conversion of PIP3 to PIP2 in freshly isolated antrum with and without the rMfge8 or RGE construct (10 μg/ml) n=3-5. *P<0.05, **P<0.01, ***P<0.001.

B1: rMfge8: recombinant Milk Fat Globule Epidermal Growth Factor 8, an integrin ligand, expressed in High 5 cells (protein)
chain: ASGDFCDSSLCLNGGTCLTGQDNDIYCLCPEGFTGLVCNETERGPCSPNPCYNDAKCLVTLDTQRGDIFTEYICQCPVGYSGIHCETETNYYNLDGEYMFTTAVPNTAVPTPAPTPDLSNNLASRCSTQLGMEGGAIADSQISASSVYMGFMGLQRWGPELARLYRTGIVNAWTASNYDSKPWIQVNLLRKMRVSGVMTQGASRAGRAEYLKTFKVAYSLDGRKFEFIQDESGGDKEFLGNLDNNSLKVNMFNPTLEAQYIKLYPVSCHRGCTLRFELLGCELHGCSEPLGLKNNTIPDSQMSASSSYKTWNLRAFGWYPHLGRLDNQGKINAWTAQSNSAKEWLQVDLGTQRQVTGIITQGARDFGHIQYVASYKVAHSDDGVQWTVYEEQGSSKVFQGNLDNNSHKKNIFEKPFMARYVRVLPVSWHNRITLRLELLGC
fatty acid uptake in Mfge8−/− hepatocytes (primary hepatocytes): rescued | fatty acid uptake in CD36−/− adipocytes (primary mouse adipocytes; CD36−/− adipocytes): did not significantly increase | fatty acid uptake in FATP1−/− adipocytes (primary mouse adipocytes; FATP1−/− adipocytes): did not significantly increase | fatty acid uptake in Mfge8−/− adipocytes (primary mouse adipocytes; Mfge8−/− primary adipocytes and differentiated adipocyte progenitors): rescued | WT fatty acid uptake (primary mouse adipocytes; WT adipocytes): significantly increased | membrane expression of CD36 (CD36): increased | AKT phosphorylation in antral tissue (AKT): reduces
